Measured values taken from the supplement of paper PMC9170038.

Test system: K4 kissing-loop RNA reporter
Assay: apparent KD of K4 kissing-loop reporter; higher = weaker reporter binding
Conditions: Eterna round: R107
Procedure: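 RNA-MaP round R107: designed RNA switches with theophylline, tryptophan, arginine or FMN aptamers are transcribed on-chip within common flanks. They are titrated with a labelled K4 kissing-loop RNA reporter in RNA-MaP buffer (100 mM Tris pH 7.5, 80 mM KCl, 4 mM MgCl2), without ligand or with the indicated ligand. Median apparent KD per design.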

[1] = input ligand: theophylline 20 uM
[2] = input ligand: tryptophan 2.4 mM
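Also: bound reporter read as fluorescence of individual clusters on recovered sequencing chips by microscopy, with normalized cluster intensities fitted with a binding model.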

Sequence | apparent KD of K4 kissing-loop reporter (input ligand: FMN 200 uM) | apparent KD of K4 kissing-loop reporter (input ligand: arginine 13.2 mM) | apparent KD of K4 kissing-loop reporter (input ligand: none) | apparent KD of K4 kissing-loop reporter [1] | apparent KD of K4 kissing-loop reporter [2]
AAAGUUGAUGAGUUGGGUAUGUGUUCCGAAGGAGCGAGAUUUAUCUCAGGUAGGUCGCGGAACUUGAGUGAUGUUCAUGUAUAAA [KL-XArg-A9 #analogue] | 356 nM | 408 nM | 491 nM | 637 nM | 305 nM
AAAUAAAGCAGUCACCCAGUGAUGUUGGAAGGAGCGUGCGAAAGCACAGGUAGGUCGCCAAAAUAAAAGUGGCUGCGGCAAAGCC [#SwitchBubble 24 #K4Early] | 627 nM | 283 nM | 492 nM | 338 nM | 222 nM
AAAUAGAUCAGUCAACCAGUGAUGUUGGAAGGAGCGUGCGAAAGCACAGGUAGGUCGCCAGAAUAAAAUUGGCUGAUCAAAAUAA | 328 nM | 338 nM | 333 nM | 408 nM | 185 nM
AAAUAGGAGUAAAUAAACAAUUUCCUUAGAGAGGAUAUUGGUAAUACAAGAAGGCUCUGUUGGGAGUGAUGUUCCCAUAACGCCU [Exclusion FMN A GF13] | 58.3 nM | 66.6 nM | 56.6 nM | 65.9 nM | 56.7 nM
AAAUAUAGUGAUGUUAUAUAUAUAUGUGAUACCAGAGAAAAGAAACUCCCUUGGCAGCACGAGAGAGAAUUUUUUUUUUAUAUAU [AstrosSSTheA#2] | 370 nM | 409 nM | 498 nM | 471 nM | 328 nM
AAAUCGUUCAGAAGGAGCGUGGAUUAUUCUUAUAUAUUUAUUACGAGUGAUGUUCGUAAUUCACAGGUAGGUCGCUGAUCGAUAA [JR_ExcArginiB_Sub004] | 106 nM | 126 nM | 112 nM | 130 nM | 108 nM
AAAUGAAGGGCUCGCAGUGAUGUUGCGAGACGAGGACCGGUACGGCCGCCACUCGGCCGCUACUUUGACUCGGGCUUUAAGCUAC [Usarusteer] | 148 nM | 139 nM | 145 nM | 140 nM | 138 nM
AAAUGUAUCUGAAGGAGCGUGAAAUAAUAUUAGACAUAAUAGCCCAGUGAUGUUGGGUUAUCACAGGUAGGUCGCAGAUGUAUAA [Same State Arginie B GF 26] | 112 nM | 108 nM | 105 nM | 125 nM | 106 nM
